Experimental data from patent US20210147561A1 (published 2021).

What was measured:
[1] = molecular target: T1, CD123 (interleukin-3 receptor alpha, IL3RA) (human, UniProt P26951 19-378)
T1 chain: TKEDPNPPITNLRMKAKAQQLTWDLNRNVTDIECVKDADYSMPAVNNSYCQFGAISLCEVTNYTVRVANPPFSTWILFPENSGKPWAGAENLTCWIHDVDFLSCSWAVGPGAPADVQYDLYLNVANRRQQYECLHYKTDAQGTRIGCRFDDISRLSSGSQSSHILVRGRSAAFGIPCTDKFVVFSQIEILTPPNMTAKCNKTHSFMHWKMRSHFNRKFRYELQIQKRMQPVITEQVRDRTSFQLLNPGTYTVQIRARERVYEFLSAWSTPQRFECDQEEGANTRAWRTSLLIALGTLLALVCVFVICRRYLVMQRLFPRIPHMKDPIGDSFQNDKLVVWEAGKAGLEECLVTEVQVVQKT

[2] = molecular target: T1, CD123 (interleukin-3 receptor alpha, …)

- Ka [1]: 4.81e+08 M⁻¹
- Kd [2]: 2.08 nM
B1: 7G3_H1L1_Fab_His (XENP 13761) (antibody, V domains shown)
VH: QVQLVQSGAEVKKPGASVKVSCKASGYTFTDYYMKWVRQAPGQSLEWMGDIIPSNGATFYNQKFQGRVTMTVDRSTSTAYMELSSLRSEDTAVYYCTRSHLLRASWFAYWGQGTLVTVSS
VL: DFVMTQSPDSLAVSLGERATINCKSSQSLLNSGNQKNYLTWYQQKPGQPPKLLIYWASTRESGVPDRFTGSGSGTDFTLTISSLQAEDVAVYYCQNDYSYPYTFGGGTKLEIKR
